From US20230218738A1 (Pfizer, published 2023)

How the values were obtained:
Assay in all cases: BLI (Octet), F on anti-HIS tip, 20 nM mAb
[1] = biological target: T1, RSV F protein mutant pXCS855 (RSV A2, UniProt P03420 26-109)
T1 chain 1: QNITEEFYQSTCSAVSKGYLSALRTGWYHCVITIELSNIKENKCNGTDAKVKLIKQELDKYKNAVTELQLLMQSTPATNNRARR
T1 chain 2: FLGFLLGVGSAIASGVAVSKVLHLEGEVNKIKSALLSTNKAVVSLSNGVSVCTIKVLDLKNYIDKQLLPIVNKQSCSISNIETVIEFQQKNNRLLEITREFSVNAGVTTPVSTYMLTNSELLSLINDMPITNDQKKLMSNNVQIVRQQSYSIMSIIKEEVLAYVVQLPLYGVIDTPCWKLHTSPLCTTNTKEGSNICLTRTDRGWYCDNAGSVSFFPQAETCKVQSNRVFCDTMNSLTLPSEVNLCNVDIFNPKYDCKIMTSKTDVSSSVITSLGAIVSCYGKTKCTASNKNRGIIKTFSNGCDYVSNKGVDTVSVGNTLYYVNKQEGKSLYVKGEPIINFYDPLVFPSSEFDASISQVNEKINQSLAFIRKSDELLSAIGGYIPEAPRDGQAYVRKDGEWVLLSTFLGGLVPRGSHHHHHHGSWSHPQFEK

[2] = biological target: RSV F protein mutant pXCS883 (RSV A2, UniProt P03420 26-109)
[3] = biological target: RSV F protein mutant pXCS848 (RSV A2, UniProt P03420 26-109)
[4] = biological target: RSV F protein mutant pXCS857 (RSV A2, UniProt P03420 26-109)
[5] = biological target: T2, RSV F protein mutant pXCS856 (RSV A2, UniProt P03420 26-109)
T2 chain 1: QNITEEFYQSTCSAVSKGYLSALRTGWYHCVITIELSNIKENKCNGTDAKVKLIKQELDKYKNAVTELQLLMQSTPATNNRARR
T2 chain 2: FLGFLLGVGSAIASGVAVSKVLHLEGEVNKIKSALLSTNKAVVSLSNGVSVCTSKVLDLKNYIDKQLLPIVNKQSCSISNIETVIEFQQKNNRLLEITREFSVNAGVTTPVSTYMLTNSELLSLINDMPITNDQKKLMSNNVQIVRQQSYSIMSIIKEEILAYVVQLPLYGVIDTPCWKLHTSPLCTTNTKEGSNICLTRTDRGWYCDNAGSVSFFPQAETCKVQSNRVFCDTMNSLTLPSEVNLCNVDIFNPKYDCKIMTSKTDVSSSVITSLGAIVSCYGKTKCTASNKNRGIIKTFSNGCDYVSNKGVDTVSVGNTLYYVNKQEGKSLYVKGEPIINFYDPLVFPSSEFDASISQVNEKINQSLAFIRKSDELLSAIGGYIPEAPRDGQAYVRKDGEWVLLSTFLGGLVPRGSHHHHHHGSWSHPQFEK

[6] = biological target: RSV F protein mutant pXCS885 (RSV A2, UniProt P03420 26-109)
[7] = biological target: RSV F protein mutant pXCS760 (RSV A2, UniProt P03420 26-109)
[8] = biological target: T3, RSV F protein mutant pXCS785 (RSV A2, UniProt P03420 26-109)
T3 chain 1: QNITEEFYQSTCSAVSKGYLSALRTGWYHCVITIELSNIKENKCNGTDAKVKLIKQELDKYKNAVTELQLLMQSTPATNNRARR
T3 chain 2: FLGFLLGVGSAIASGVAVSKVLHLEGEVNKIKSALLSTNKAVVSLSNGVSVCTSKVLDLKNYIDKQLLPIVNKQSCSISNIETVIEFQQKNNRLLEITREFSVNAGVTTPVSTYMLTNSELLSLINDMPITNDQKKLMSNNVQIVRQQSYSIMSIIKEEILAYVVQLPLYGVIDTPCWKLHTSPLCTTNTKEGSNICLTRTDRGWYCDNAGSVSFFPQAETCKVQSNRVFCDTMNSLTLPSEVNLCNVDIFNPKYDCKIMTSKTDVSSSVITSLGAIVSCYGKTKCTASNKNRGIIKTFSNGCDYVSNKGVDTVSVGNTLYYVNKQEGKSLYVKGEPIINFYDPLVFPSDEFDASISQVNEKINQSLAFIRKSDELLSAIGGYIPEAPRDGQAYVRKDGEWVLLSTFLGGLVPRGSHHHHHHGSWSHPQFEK

[9] = biological target: T4, RSV F protein mutant pXCS892 (RSV A2, UniProt P03420 26-109)
T4 chain 1: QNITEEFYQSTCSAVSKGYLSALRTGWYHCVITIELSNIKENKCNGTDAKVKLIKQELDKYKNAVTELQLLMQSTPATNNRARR
T4 chain 2: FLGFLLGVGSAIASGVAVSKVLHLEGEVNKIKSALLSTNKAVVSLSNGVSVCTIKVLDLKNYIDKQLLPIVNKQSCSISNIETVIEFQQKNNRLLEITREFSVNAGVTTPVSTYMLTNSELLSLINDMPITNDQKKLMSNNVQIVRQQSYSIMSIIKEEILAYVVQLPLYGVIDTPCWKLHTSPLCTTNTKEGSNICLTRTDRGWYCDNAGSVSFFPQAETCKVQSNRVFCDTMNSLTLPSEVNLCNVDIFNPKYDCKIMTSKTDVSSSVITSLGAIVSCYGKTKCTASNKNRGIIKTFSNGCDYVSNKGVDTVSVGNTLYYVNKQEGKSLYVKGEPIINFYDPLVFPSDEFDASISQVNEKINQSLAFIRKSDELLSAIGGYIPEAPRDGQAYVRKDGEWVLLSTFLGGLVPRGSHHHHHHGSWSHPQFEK

[10] = biological target: RSV F protein mutant pXCS777 (RSV A2, UniProt P03420 26-109)
[11] = biological target: RSV F protein mutant pXCS781 (RSV A2, UniProt P03420 26-109)

| Binder | Response (nm shift) [1] [nm] | Response (nm shift) [2] [nm] | Response (nm shift) [3] [nm] | Response (nm shift) [4] [nm] | Response (nm shift) [5] [nm] | Response (nm shift) [6] [nm] | Response (nm shift) [7] [nm] | Response (nm shift) [8] [nm] | Response (nm shift) [9] [nm] | Response (nm shift) [10] [nm] | Response (nm shift) [11] [nm] |
| --- | --- | --- | --- | --- | --- | --- | --- | --- | --- | --- | --- |
| AM22 (antibody, V domains shown) VH: QVQLVQSGAEVKKPGATVKVSCKISGHTLIKLSIHWVRQAPGKGLEWMGGYEGEVDEIFYAQKFQHRLTVIADTATDTVYMELGRLTSDDTAVYFCGTLGVTVTEAGLGIDDYWGQGTLVTVSS VL: EIVLTQSPGTLSLSPGERATLSCRASQIVSRNHLAWYQQKPGQAPRLLIFGASSRATGIPVRFSGSGSGTDFTLTINGLAPEDFAVYYCLSSDSSIFTFGPGTKVDFK | 0.523 | 0.233 | 0.109 | 0.563 | 0.568 | 0.105 | 0.121 | 0.465 | 0.542 | 0.121 | 0.423 |
| MPE8 (antibody, V domains shown, also called MPEG) VH: EVQLVESGGGLVKPGGSLRLSCAASGFTFSSYSMNWVRQAPGKGLEWVSSISASSSYSDYADSAKGRFTISRDNAKTSLFLQMNSLRAEDTAIYFCARARATGYSSITPYFDIWGQGTLVTVSS VL: QSVVTQTPSVSGAPGQRVTISCTGSSSNIGAGYDVHWYQQLPGTAPKLLIYDNNNRPSGVPDRFSASKSGTSASLAITGLQAEDEADYYCQSYDRNLSGVFGTGTKVTVL | 0.982 | 0.704 | 0.266 | 1.09 | 1.06 | 0.408 | 0.151 | 0.937 | 1.03 | 0.27 | 0.876 |
